We go through two compounds from article PMC3668577, “Structure of diaminohydroxyphosphoribosylaminopyrimidine deaminase/5-amino-6-(5-phosphoribosylamino)uracil reductase from Acinetobacter baumannii” (Acta Crystallographica Section F: Structural Biology and …, 2013).

The target of assay [1] is T1, AbRibD (Acinetobacter baumannii, UniProt D0CB74).
T1 construct: gene ribD; full length, 362 residues untagged (386 with tag); N-terminal His6-TEV tag (24 extra residues) kept; E. coli BL21(DE3); homodimer; subunit 42038 Da tagged
T1 sequence (D0CB74 1-361): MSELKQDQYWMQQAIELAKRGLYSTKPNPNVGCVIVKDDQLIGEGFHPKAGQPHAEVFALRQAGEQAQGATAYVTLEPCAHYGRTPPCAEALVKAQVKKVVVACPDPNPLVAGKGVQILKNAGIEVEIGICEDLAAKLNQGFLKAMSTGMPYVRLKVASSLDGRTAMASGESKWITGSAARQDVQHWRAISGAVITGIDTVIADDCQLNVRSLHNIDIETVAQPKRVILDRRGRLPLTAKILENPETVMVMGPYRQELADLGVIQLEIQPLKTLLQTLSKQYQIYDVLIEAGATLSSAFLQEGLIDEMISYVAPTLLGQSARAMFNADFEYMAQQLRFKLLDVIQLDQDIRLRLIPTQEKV
The experiment in a line: X-ray crystallography (cocrystallization), […] A. The conditions noted are these: 5 mM GMP; crystals at pH 5, 293 K; NADPH-binding site of reductase domain (adenine pocket); second site on surface at occupancy 0.5; authors judge binding not biologically relevant.

For assay [2], the target named is Acinetobacter baumannii diaminohydroxyphosphoribosylaminopyrimidine deaminase/5-amino-6-(5-phosphoribosylamino)uracil reductase (RibD) (Acinetobacter baumannii (strain ATCC 19606)). The assay is described as follows: SEC; Superdex 200 26/60, 50 mM Tris-HCl, 250 mM NaCl pH 7.5; both Ni2+ column peaks ran as homogeneous samples of approximate mass 58 kDa (tagged subunit 42 038 Da).

Assay [3] has the same target. The assay is described as follows: crystal structure; form I (apo, C222(1), 2.2 A, two subunits in the asymmetric unit related by a noncrystallographic twofold) and form II (grown with 5 mM GMP, P4(3)2(1)2, 2.0 A, same dimer generated by a crystallographic twofold); crystals grown at 293 K.

`Nc1nc2c(ncn2[C@@H]2O[C@H](COP(=O)(O)O)[C@@H](O)[C@H]2O)c(=O)[nH]1` [GMP]: in assay [1], the “X-ray crystallography (cocrystallization), 1.99 A” value is on record as “a GMP molecule was observed in the NADPH-binding site of the reductase domain”.

Usually stoichiometry N stands for the number of molecules, sites or subunits per partner or assembly. For the compound “Acinetobacter baumannii diaminohydroxyphosphoribosylaminopyrimidine deaminase/5-amino-6-(5-phosphoribosylamino)uracil reductase (RibD) (enzyme)”, the stoichiometry N in assay [2] and in assay [3] was 2 each time.
